From patent US20170101442A1 (CURATORS OF THE UNIVERSITY OF MISSOURI, published 2017) come the findings set out here.

Assay [1] has as its target T1, insulin-like growth factor 2 receptor (IGF2R) on human hepatic stellate cells LX-2 (human, UniProt P11717 41-2491).
T1 construct: Endogenous IGF2R on LX-2 cells; also called LX-2 cells; LX 2 cells
Briefly: flow cytometry, 5-FAM labelled peptide titrated on LX-2 cells, 1 h at 37 C; apparent Kd. On the procedure: (§1) The cells were incubated with 5 FAM labeled peptides at different concentrations for 1 h at 37° C. The labeled cells were detected by flow cytometry, and the apparent Kd value was calculated using GraphPad Prism. […] The result is consistent with the cellular uptake result depicted in FIGS. 7A-7B, 8A-8G, and 9A-9G.

Assay [2] deals with T1, insulin-like growth factor 2 receptor …. Description: flow cytometry, labelled dimeric peptide titrated on LX-2 cells; apparent Kd. As to the method: as §1
For assay [3] the target is unchanged. Briefly: flow cytometry on LX-2 cells; apparent Kd of the dimer against that of the monomer. On the procedure:
as §1

Ends that are not written are not given here.

T1 sequence (P11717 41-2491 R1619G limits assumed): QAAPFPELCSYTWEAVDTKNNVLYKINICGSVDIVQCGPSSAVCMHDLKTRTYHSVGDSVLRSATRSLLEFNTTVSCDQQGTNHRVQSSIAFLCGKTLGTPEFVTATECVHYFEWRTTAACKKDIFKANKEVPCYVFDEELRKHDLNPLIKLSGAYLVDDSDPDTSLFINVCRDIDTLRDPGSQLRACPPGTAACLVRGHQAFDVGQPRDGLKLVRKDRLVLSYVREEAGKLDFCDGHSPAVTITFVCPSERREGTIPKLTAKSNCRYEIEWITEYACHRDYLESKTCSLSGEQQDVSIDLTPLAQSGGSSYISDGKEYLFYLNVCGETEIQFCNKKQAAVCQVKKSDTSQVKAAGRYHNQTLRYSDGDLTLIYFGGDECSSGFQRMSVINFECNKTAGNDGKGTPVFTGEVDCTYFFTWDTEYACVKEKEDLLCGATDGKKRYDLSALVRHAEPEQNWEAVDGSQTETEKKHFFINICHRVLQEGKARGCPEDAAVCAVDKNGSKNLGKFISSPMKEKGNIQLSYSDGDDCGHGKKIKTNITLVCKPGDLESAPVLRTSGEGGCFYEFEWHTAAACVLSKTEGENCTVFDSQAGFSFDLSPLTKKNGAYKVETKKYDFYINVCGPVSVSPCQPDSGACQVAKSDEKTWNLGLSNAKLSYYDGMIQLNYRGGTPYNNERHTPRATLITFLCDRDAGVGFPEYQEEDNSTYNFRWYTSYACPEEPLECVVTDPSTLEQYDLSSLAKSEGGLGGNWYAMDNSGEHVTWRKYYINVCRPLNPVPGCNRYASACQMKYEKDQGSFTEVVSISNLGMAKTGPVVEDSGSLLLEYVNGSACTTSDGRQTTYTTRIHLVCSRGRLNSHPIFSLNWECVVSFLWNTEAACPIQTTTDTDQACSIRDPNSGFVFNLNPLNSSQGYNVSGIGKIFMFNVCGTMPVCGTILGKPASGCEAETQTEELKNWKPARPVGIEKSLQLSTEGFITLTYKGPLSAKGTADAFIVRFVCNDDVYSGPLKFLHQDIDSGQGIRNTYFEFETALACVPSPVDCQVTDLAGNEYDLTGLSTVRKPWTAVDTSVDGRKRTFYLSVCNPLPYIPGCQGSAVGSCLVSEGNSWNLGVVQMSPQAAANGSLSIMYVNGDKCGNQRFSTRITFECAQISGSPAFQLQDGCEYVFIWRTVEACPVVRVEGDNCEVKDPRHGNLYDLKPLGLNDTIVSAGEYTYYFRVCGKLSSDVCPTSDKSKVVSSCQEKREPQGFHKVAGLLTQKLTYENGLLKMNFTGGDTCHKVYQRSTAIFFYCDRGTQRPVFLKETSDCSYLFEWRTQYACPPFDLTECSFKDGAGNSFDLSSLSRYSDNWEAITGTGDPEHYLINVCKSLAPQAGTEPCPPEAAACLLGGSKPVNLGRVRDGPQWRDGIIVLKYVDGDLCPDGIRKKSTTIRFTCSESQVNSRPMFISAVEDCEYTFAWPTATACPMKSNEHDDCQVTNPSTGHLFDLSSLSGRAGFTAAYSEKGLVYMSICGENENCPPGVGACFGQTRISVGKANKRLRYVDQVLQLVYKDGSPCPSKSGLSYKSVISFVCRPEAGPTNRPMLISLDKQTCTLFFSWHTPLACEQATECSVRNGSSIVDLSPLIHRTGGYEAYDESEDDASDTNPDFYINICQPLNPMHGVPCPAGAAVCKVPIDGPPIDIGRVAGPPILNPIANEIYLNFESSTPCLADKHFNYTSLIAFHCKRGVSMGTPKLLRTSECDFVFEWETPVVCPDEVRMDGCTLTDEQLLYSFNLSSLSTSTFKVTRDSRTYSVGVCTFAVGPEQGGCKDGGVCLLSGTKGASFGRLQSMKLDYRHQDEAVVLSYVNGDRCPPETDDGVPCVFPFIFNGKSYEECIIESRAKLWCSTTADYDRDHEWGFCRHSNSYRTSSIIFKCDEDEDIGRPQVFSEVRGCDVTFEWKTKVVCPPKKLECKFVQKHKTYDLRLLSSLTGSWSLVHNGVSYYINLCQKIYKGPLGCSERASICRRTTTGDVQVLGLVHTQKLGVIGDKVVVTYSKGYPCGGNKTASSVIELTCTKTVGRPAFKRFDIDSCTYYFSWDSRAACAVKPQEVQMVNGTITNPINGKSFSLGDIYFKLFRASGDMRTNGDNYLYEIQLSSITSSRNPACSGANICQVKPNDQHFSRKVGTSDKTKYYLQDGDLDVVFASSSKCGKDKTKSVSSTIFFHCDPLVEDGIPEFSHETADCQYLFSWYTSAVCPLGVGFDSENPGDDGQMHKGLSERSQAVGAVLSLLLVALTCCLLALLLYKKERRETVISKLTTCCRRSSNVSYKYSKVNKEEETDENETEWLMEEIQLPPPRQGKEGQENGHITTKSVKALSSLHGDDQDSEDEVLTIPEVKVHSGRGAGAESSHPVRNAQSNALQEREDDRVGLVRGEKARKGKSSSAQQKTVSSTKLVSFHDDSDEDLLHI

VHWDFRQWWQPS (also: 5-FAM label, position not given here) [Peptide-431]: the Kd in assay [1] turned out to be 6.19 µM.

B1: dimeric peptide 431 (peptide)
peptide: VHWDFRQWWQPS
modifications: also: dimer: two copies linked via a lysine, imaging agent coupled to the linker
For the molecule B1, the Kd in assay [2] was determined as 0.701 µM. Besides, in assay [3], the “fold lower apparent Kd against monomeric peptide 431” value was roughly 9 fold.
